Data on one molecule can be found in patent US20160237143A1 (OSTERREICHISCHE AKADEMIE DER WISSENSCHAFTEN, published 2016).

Test [1] deals with T1, HPV 16 E7 derived synthetic 13mer peptide 43 (amino acids 85 to 97) (human papillomavirus type 16).
T1 construct: Immobilised on a peptide microarray
T1 peptide: GTLGIVCPICSQK
The test is described as follows: peptide microarray, anti-rabbit-Cy5.
Procedure: HPV 16 E7 epitopes were analyzed by JPT Peptide Technologies GmbH (Berlin, Germany) using peptide microarrays. […] The determination of peptide-antibody binding was performed by RepliTope-analysis where the peptide microarray was incubated with the primary antibody followed by a fluorescently labelled secondary antibody (anti-rabbit-Cy5). After washing the peptide microarrays were dried using a microarray centrifuge and scanned in a high resolution microarray scanning system with appropriate wavelength settings.

Test [2] deals with T2, HPV 16 E7 derived synthetic 13mer peptide 44 (amino acids 86 to 98) (human papillomavirus type 16).
T2 construct: Immobilised on a peptide microarray
T2 peptide: TLGIVCPICSQKP
As to the kind of experiment: peptide microarray, anti-rabbit-Cy5.

A further test deals with T3, HPV 18 E7 protein (human papillomavirus type 18, UniProt P06788 1-105).
T3 construct: also called E7 protein of HPV 18
T3 sequence: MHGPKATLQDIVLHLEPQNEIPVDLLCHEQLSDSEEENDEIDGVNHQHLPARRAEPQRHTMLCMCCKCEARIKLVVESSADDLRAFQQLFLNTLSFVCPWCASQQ
As to the kind of experiment: confocal immunofluorescence on U-2OS cells overexpressing E7.

Another test concerns the target T4, HPV 45 E7 protein (human papillomavirus type 45, UniProt P21736 1-106).
T4 construct: also called E7 protein of HPV 45
T4 sequence: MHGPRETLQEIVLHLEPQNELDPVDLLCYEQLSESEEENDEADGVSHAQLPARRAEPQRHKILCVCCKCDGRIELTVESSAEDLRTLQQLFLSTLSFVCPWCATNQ
The test is described as above.

The next test deals with T5, HPV 16 E7 mutant C91G (human papillomavirus type 16, UniProt P03129 1-98).
T5 sequence: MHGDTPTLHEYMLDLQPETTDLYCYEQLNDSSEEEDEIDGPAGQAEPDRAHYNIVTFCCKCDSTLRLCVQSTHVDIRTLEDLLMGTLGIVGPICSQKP
The test is described as follows: indirect immunofluorescence on transiently transfected U-2OS cells.

The next test has as its target T6, HPV 16 E7 mutant C58G (human papillomavirus type 16, UniProt P03129 1-98).
T6 sequence: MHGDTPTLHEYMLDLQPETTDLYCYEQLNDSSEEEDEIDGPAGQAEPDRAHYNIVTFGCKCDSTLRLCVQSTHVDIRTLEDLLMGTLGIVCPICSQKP
Described as above.

The target of test [3] is T7, HPV 16 E7 mutant C58G/C91G (human papillomavirus type 16, UniProt P03129 1-98).
T7 sequence: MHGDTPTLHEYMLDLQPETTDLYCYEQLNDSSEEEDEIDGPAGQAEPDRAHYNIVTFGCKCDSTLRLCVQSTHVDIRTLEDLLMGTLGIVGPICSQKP
The description is as above.

The target of the next test is T8, HPV 11 E7 protein (human papillomavirus type 11, UniProt P04020 1-98).
T8 construct: also called low-risk HPV type 11 E7
T8 sequence: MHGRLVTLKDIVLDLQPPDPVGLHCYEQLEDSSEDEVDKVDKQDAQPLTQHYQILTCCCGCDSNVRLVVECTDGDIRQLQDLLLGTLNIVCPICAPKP
As to the kind of experiment: direct ELISA, coated recombinant E7, biotinylated antibody. (In general: An ELISA detects its analyte on a solid surface through an enzyme-linked reagent.)

B1: monoclonal anti-HPV 16 E7 antibody of the present invention (rabbit monoclonal, hybridoma Klon 42-3-78, DSM ACC3034) (antibody, V domains shown)
VH: QSLEESGGRLVTPGGSLTLTCTVSGIDLSTYEISWVRQAPGKGLEWIGIIGTSANTVYASWAKGRFTISKSSTTVDLRVTSLTTEDTATYFCARAYDEYGIHAFHPWGPGTLVTVSS
VL: AQVLTQTPSPVSAAVGGTVTINCQASQSVYNAKNLAWYQQKPGQPPKLLIYQASTLASGVPSRFKGSGSGTQFTLTISGVQCDDAATYYCQGEFSCSSADCNVFGGGTEVVVKG
notes: Rabbit IgG purified from hybridoma supernatant on Protein G; used plain or biotinylated; also called monoclonal antibody against HPV 16 E7; RabMab
In the case of B1, the binding result in test [1] is given as “binds”; in test [2], “binds”; in the test with HPV 18 E7 protein it was “no binding (tested: 25 µg/ml)”; with HPV 45 E7 protein, “no binding (tested: 25 µg/ml)”; with HPV 16 E7 mutant C91G, “no binding”; in the test with HPV 16 E7 mutant C58G it was “no binding”. In addition, the binding result in test [3] was “no binding”; with HPV 11 E7 protein, “no binding (tested: 2.5 and 10 ng coated E7 protein)”.
